Measured values published in PMC2532732.

Columns and labels:
Assay in all cases: EMSA
[1] = target: T1, p73 DBD (UniProt O15350 104-333)
T1 sequence: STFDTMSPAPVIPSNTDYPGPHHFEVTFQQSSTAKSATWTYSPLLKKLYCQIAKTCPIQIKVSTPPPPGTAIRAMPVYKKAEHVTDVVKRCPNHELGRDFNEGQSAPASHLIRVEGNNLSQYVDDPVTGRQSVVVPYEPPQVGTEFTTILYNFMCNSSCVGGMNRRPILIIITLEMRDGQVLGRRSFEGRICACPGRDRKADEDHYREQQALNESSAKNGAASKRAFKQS

[2] = target: p53 DBD (UniProt P04637 94-312)
[3] = target: T2, p63 DBD (UniProt Q9H3D4 154-365)
T2 sequence: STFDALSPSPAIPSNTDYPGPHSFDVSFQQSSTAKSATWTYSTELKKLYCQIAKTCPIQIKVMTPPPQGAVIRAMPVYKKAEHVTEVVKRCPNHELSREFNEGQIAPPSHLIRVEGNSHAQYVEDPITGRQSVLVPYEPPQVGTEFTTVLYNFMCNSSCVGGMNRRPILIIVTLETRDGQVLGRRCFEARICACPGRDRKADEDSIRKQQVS

Measured: binding result

Chain of p53 DBD (P04637 94-312): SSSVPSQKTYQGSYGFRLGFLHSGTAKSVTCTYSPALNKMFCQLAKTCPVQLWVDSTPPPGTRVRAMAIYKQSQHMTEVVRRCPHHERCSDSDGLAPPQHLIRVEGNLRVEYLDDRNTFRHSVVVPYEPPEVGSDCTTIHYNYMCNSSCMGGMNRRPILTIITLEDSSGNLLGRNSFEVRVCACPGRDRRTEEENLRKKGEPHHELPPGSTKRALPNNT

B1: Bax promoter 30-mer (dsDNA)
DNA 1: GGGCTCACAAGTTAGAGACAAGCCTGGGCG
DNA 2: CGCCCAGGCTTGTCTCTAACTTGTGAGCCC
binds: all assays above

B2: PUMA promoter 30-mer (dsDNA)
DNA 1: CGCGCCTGCAAGTCCTGACTTGTCCGCGGC
DNA 2: GCCGCGGACAAGTCAGGACTTGCAGGCGCG
binds: all assays above
